Data: PMC7057392 (ACS chemical neuroscience, 2020)

How the values were obtained:
[1] = molecular target: Cys-min α7 nAChR (human α7 nAChR containing only the C128-C142 and C190-C191 cysteines) (human) (UniProt P36544); assay: SPR
[2] = molecular target: wild-type human α7 nicotinic acetylcholine receptor (human, UniProt P36544 23-502); assay: SPR

“PDZ domain of PICK1 (first 126 amino acids of PICK1) (from UniProt Q9NRD5 1-126) (domain or fragment)” gave a Kd [1] of 2600 nM.

B1: PDZ domain of PICK1 (first 126 amino acids of PICK1) (domain or fragment, UniProt Q9NRD5 1-126, looked up)
chain: MFADLDYDIEEDKLGIPTVPGKVTLQKDAQNLIGISIGGGAQYCPCLYIVQVFDNTPAALDGTVAAGDEITGVNGRSIKGKTKVEVAKMIQEVKGEVTIHYNKLQADPKQGMSLDIVLKKVKHRLV
For B1, the Kd [2] was 2500 ± 400 nM.
